Here are results for 7 molecules from US20240034762A1 (YALE UNIVERSITY, published 2024).

The target in test [1] is T1, full-length human α-Klotho with a C-terminal HA-tag on HEK293 cells stably co-expressing FGFR1c (human) (UniProt Q9UEF7).
T1 sequence: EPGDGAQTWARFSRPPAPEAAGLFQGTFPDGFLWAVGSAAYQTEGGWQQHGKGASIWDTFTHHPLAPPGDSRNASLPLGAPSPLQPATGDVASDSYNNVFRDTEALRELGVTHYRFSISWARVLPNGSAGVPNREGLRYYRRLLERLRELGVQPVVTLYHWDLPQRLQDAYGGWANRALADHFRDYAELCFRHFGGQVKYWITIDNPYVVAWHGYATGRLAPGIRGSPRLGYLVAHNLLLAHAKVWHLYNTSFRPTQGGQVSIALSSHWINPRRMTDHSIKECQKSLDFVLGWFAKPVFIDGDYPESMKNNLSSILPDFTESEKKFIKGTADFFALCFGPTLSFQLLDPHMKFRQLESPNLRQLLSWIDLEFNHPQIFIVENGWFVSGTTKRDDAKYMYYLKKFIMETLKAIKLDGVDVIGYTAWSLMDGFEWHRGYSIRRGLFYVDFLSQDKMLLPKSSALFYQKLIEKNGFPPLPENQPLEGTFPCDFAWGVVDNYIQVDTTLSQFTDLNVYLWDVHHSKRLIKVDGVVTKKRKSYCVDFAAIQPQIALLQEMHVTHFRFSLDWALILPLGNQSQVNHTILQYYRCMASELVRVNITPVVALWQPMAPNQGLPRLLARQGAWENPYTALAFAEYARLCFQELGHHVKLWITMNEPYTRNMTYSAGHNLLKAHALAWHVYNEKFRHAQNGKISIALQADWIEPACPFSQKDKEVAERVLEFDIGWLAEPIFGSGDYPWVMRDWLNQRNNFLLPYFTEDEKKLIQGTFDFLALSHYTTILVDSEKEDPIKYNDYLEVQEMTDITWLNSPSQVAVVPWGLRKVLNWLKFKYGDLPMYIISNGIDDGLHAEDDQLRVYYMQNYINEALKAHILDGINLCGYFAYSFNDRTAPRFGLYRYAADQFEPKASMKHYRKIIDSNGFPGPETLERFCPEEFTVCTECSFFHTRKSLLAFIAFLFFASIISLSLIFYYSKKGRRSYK
The test can be described thus: cell-based or functional assay.

In test [2] the target is T2, soluble extracellular domain of human α-Klotho (aa 1-980) fused to a 6xHis tag (human, UniProt Q9UEF7 34-980).
T2 construct: Secreted from HEK293 EBNA cells; also called sKLA; soluble α-Klotho
T2 sequence: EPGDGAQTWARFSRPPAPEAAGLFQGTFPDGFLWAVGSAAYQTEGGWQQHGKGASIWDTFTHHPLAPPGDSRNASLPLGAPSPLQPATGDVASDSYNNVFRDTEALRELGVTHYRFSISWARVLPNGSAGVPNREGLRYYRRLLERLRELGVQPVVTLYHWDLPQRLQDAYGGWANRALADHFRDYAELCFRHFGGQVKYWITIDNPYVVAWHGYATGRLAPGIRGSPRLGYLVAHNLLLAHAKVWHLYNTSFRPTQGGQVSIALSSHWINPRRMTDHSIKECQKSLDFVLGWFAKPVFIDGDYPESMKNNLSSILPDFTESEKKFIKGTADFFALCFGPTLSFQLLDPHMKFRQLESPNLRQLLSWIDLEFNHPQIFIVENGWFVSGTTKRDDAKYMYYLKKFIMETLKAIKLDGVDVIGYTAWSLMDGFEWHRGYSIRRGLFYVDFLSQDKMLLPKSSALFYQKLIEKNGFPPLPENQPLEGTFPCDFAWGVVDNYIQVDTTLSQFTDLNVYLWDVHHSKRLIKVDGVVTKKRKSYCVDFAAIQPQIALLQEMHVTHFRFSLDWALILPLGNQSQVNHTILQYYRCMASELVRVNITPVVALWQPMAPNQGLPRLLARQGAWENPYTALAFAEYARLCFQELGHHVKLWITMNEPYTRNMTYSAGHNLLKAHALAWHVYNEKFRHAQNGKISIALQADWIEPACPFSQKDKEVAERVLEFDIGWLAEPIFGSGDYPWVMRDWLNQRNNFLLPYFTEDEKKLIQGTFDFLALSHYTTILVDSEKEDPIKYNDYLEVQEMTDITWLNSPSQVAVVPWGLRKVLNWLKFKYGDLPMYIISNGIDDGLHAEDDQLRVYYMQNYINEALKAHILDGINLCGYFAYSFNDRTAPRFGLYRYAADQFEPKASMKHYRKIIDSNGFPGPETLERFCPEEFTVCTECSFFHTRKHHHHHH
The test can be described thus: BLI, FGF23 variant on the sensor, sKLA as analyte.

For test [3], the target named is T3, full-length human α-Klotho with a C-terminal HA-tag on HEK293 cells stably co-expressing FGFR1c (human, UniProt Q9UEF7 34-1012).
T3 sequence: T1 sequence
The test can be described thus: cell-based or functional assay.

No end group written: not given here.

B1: human IgG1 Fc fused to the full-length C-terminal tail of human FGF23 (aa 180-251) (Fc fusion, not shown: a dimerising Fc or GST)
chain: SAEDDSERDPLNVLKPRARMTPAPASCSQELPSAEDNSPMASDPLGVVRGGRVNTHAGGTGPEGCRPFAKFI
On to B1, for which the complete inhibition of FGF23-induced MAPK stimulation in HEK293 cells co-expressing α-Klotho and FGFR1c in test [1] was 100 to 250 nM.

B2: human IgG1 Fc fused to R1 (aa 180-205) of human FGF23 (Fc fusion, not shown: a dimerising Fc or GST)
chain: SAEDDSERDPLNVLKPRARMTPAPAS
modifications: not fully specified (N-terminus); also: dimeric Fc fusion protein, Fc-R1 junction/linker not given here
As to B2, in test [1], the complete inhibition of FGF23-induced MAPK stimulation in HEK293 cells co-expressing α-Klotho and FGFR1c was 100 to 250 nM.

B3: human FGF23 D188A/D222A double mutant (ligand)
chain: DYKDDDDKYPNASPLLGSSWGGLIHLYTATARNSYHLQIHKNGHVDGAPHQTIYSALMIRSEDAGFVVITGVMSRRYLCMDFRGNIFGSHYFDPENCRFQHQTLENGYDVYHSPQYHFLVSLGAAKAAFLPGMNPPPYSQFLSRRNEIPLIHFNTPIPRQHTQSAEDDSERAPLNVLKPRARMTPAPASCSQELPSAEDNSPMASAPLGVVRGGRVNTHAGGTGPEGCRPFAKFI
notes: also called D188A/D222A double mutations
Consider B3, for which the binding result in test [2] is “no binding (tested: sKLA 6.25 nM to 200 nM)”.

B4: full length human FGF23 (aa 25-251) expressed in E. coli (ligand)
chain: YPNASPLLGSSWGGLIHLYTATARNSYHLQIHKNGHVDGAPHQTIYSALMIRSEDAGFVVITGVMSRRYLCMDFRGNIFGSHYFDPENCRFQHQTLENGYDVYHSPQYHFLVSLGAAKAAFLPGMNPPPYSQFLSRRNEIPLIHFNTPIPRQHTQSAEDDSERDPLNVLKPRARMTPAPASCSQELPSAEDNSPMASDPLGVVRGGRVNTHAGGTGPEGCRPFAKFI
Consider B4, for which the “activation of MAPK response in HEK293 cells co-expressing FGFR1c and α-Klotho; ligand concentration at saturation” value (from here on “activation of MAPK response”) in test [3] came out at 0.1 nM.
Turning to {human IgG1 Fc (aa 223-449)}-SAEDNSPMASDPLGVVRGGRVNTHAGGTGPEG (Fc fusion, not shown: a dimerising Fc or GST, also: R2 given as aa 212-243 or S212-T239) [human IgG1 Fc fused to R2 of human FGF23], the complete inhibition of FGF23-induced MAPK stimulation in HEK293 cells co-expressing α-Klotho and FGFR1c in test [1] lay within 100 to 250 nM.

B5: human FGF23-R2 (aa 25-179 fused to aa 212-243) (ligand)
chain: YPNASPLLGSSWGGLIHLYTATARNSYHLQIHKNGHVDGAPHQTIYSALMIRSEDAGFVVITGVMSRRYLCMDFRGNIFGSHYFDPENCRFQHQTLENGYDVYHSPQYHFLVSLGAAKAAFLPGMNPPPYSQFLSRRNEIPLIHFNTPIPRQHTQSAEDNSPMASDPLGVVRGGRVNTHAGGTGPEG
Consider B5, for which the “activation of MAPK response” value in test [3] is 0.1 nM.

B6: human FGF23-R1 (aa 25-205) expressed in E. coli (ligand)
chain: YPNASPLLGSSWGGLIHLYTATARNSYHLQIHKNGHVDGAPHQTIYSALMIRSEDAGFVVITGVMSRRYLCMDFRGNIFGSHYFDPENCRFQHQTLENGYDVYHSPQYHFLVSLGAAKAAFLPGMNPPPYSQFLSRRNEIPLIHFNTPIPRQHTQSAEDDSERDPLNVLKPRARMTPAPAS
Take B6: the “activation of MAPK response” value in test [3] amounted to 0.1 nM.
